US7301014B2, “Nucleic acid molecule encoding a novel estrogen receptor beta variant” (Wyeth, priority 2002, dated 2007)
Entries after “also recorded” stand apart in the source; their conditions may differ.

B1: ERβcx2: novel human estrogen receptor beta variant; C-terminal 61 amino acids of wild-type ERβ replaced by unique 7 amino acids; tested as expression plasmid (protein)
chain: KVFSQLLSQDMNIKNSPSSLNSPSSYNCSQSILPLEHGSIYIPSSYVDSHHEYPAMTFYSPAVMNYSIPSNVTNLEGGPGRQTTSPNVLWPTPGHLSPLVVHRQLSHLYAEPQKSPWCEARSLEHTLPVNRETLKRKVSGNRCASPVTGPGSKRDAHFCAVCSDYASGYHYGVWSCEGCKAFFKRSIQGHNDYICPATNQCTIDKNRRKSCQACRLRKCYEVGMVKCGSRRERCGYRLVRRQRSADEQLHCAGKAKRSGGHAPRVRELLLDALSPEQLVLTLLEAEPPHVLISRPSAPFTEASMMMSLTKLADKELVHMISWAKKIPGFVELSLFDQVRLLESCWMEVLMMGLMWRSIDHPGKLIFAPDLVLDRDEGKCVEGILEIFDMLLATTSRFRELKLQHKEYLCVKAMILLNSSMYPLVTATQDADSSRKLAHLLNAVTDALVWVIAKSGISSQQQSMRLANLLMLLSHVRHARLYIWALKMFAALKQILRPAFPSSRECFPYCVPLMSMALSQRVHDINKVFHYFGFXKKKKKKKXXXXKKGRPLRIPR
modifications: not fully specified; X: residue not identified in the source
notes: novel human estrogen receptor beta variant; C-terminal 61 amino acids of wild-type ERβ replaced by unique 7 amino acids; tested as expression plasmid
B2: ERβ: wild-type estrogen receptor beta, expressed from expression plasmid (protein, UniProt Q92731 1-530, looked up)
Estrogen receptor beta: MDIKNSPSSLNSPSSYNCSQSILPLEHGSIYIPSSYVDSHHEYPAMTFYSPAVMNYSIPSNVTNLEGGPGRQTTSPNVLWPTPGHLSPLVVHRQLSHLYAEPQKSPWCEARSLEHTLPVNRETLKRKVSGNRCASPVTGPGSKRDAHFCAVCSDYASGYHYGVWSCEGCKAFFKRSIQGHNDYICPATNQCTIDKNRRKSCQACRLRKCYEVGMVKCGSRRERCGYRLVRRQRSADEQLHCAGKAKRSGGHAPRVRELLLDALSPEQLVLTLLEAEPPHVLISRPSAPFTEASMMMSLTKLADKELVHMISWAKKIPGFVELSLFDQVRLLESCWMEVLMMGLMWRSIDHPGKLIFAPDLVLDRDEGKCVEGILEIFDMLLATTSRFRELKLQHKEYLCVKAMILLNSSMYPLVTATQDADSSRKLAHLLNAVTDALVWVIAKSGISSQQQSMRLANLLMLLSHVRHASNKGMEHLLNMKCKNVVPVYDLLLEMLNAHVLRGCKSSITGSECSPAEDSKSKEGSQNPQSQ

Tests used:
Format in all cases: cell-based, human
ERβ signaling pathway = assay: Cotransfection of ERE-tk reporter with ERβ and increasing amounts of ERβcx2 expression plasmid (dominant negative activity); conditions: ERE-tk reporter cotransfected with ERβ; E2 ligand activation; luciferase measured in 48 hrs; FIG. 10
Text: (§1) The estrogen response element (ERE) containing reporter, ERα, and ERβ expression plasmids have been described previously (Bodine, et al J Cell Biochem 1997; 65: 368-387 and Bhat et al. J Steroid Biochem Mol Biol 1998; 67(3):233-40). The ERβcx2 expression plasmid was constructed by cloning a BstXI/Xbal fragment of the original ERβcx2 clone (ef1-3/pCR 2.1) into the ERβ expression plasmid digested with the same restriction enzymes. The sequence of the clone was confirmed by sequence analysis. An SV40-β gal plasmid (Promega, Madison, Wis.) was used to normalize transfections.
(§2) Cells were transfected with lipofectamine 2000 and incubated in the presence or absence of estrogen for 24 hrs. Luciferase expression was monitored in the cell lysates. Transient transfections were performed in HepG2 cells maintained in DMEM supplemented with 10% fetal bovine serum. […] 24 hrs later, cells were and luciferase activity was quantitated in an automated ML 1000 Luminometer (Dynex Technologies, Chantilly, Va.,). β-galactosidase activity was measured in cell lysates to normalize for differences in transfection efficiency. […]
(§3) In these experiments, the ERE-tk reporter was cotransfected with either ERα or ERβ and increasing amounts of the ERβcx2 expression plasmid. Luciferase acitivity was measured in 48 hrs. […]

ERα signaling pathway = assay: Cotransfection of ERE-tk reporter with ERα and increasing amounts of ERβcx2 expression plasmid (dominant negative activity); conditions: ERE-tk reporter cotransfected with ERα; E2 ligand activation; luciferase measured in 48 hrs; FIG. 9
Text: as §1, §2, §3

[1] = system: ERE-tk-Luciferase reporter in HepG2 cells; assay: Transactivation of ERE-tk-Luciferase reporter by estrogen receptor variants, transient transfection; design: dose or concentration left out as unconfirmed; conditions: HepG2 cells transfected with receptor expression plasmid; stimulation with E2 (17b-estradiol) vs ethanol vehicle, 24 hrs; normalized to β-galactosidase
Text: as §1
as §2, with “serum. Twenty-four hours prior to transfection, cells are seeded in phenol red-free (PRF) DMEM containing 10% charcoal-stripped serum (csFBS), into collagen-coated 6 well plates (Biocoat, Becton Dickenson).” for “serum.”

| Molecule | signaling through E2-activated ERβ (luciferase) with increasing amounts of the ERβcx2 expression construct (ERβ signaling pathway) | luciferase activity of E2-activated ERα with increasing amounts of the ERβcx2 expression construct (ERα signaling pathway) | ligand-activated transcription of the ERE-reporter (luciferase activity), induction [1] |
| --- | --- | --- | --- |
| B1 | reduced | diminished | unable to induce transcription; also recorded: unchanged |
| B2 |  |  | 8.0 fold |
